Test results published in PMC4459029, “Effects of receptor tyrosine kinase inhibitors on VEGF165a- and VEGF165b-stimulated gene transcription in HEK-293 cells expressing human VEGFR2” (British Journal of Pharmacology, 2015).
Several values for one entry are separate records, joined by “and”; a condition that tells them apart may be missing. Identical values can stand only once. Each block holds one molecule with its values, some of them ahead of it.

Assays:
[1] = system: basal NFAT-luciferase activity; assay: basal NFAT-luciferase production in VEGFR2 NFAT cells; type: cell-based, human; conditions: no VEGF; P < 0.05 one way ANOVA
Source text: HEK-293 cells expressing the human VEGFR2 and an NFAT reporter gene were provided by Promega Corporation. The NFAT reporter gene contained an NFAT response element linked via a minimal promoter to the firefly luciferase gene luc2P containing a human sequence enriched in proline (P), glutamic acid (E), serine (S) and threonine (T) protein destabilization sequence (Voon et al., [2005]). VEGFR2 NFAT cells were maintained in DMEM media supplemented with 10% FCS and 0.5% G418 in a humidified 5% CO2/95% air atmosphere at 37°C.
VEGFR2 NFAT cells were seeded in a T75 flask at 5 × 10^6 cells per flask using DMEM +10%FCS and incubated at 37°C in a 5% CO2/95% air atmosphere for 3 days until the cells were 100% confluent. On the fourth day, cells were washed with PBS and detached using 3 mL Versene® (ETDA 0.02% in PBS). Once cells had detached, 6 mL of DMEM +0.1%BSA was added and the cells were counted using a haemocytometer. […] After the 5 h incubation, 100 μL ONE-Glo Luciferase Assay reagent was added to each well and luminescence was measured according to the manufacturer's instructions on a Topcount platereader (Perkin Elmer, Llantrisant, UK).

human VEGFR2 = biological target: T1, human VEGFR2 (Homo sapiens, UniProt P35968); assay: VEGFR2-stimulated NFAT-luciferase reporter gene activity in HEK-293 cells; type: cell-based
T1 construct: host or cells: HEK-293
T1 sequence (P35968 20-1356): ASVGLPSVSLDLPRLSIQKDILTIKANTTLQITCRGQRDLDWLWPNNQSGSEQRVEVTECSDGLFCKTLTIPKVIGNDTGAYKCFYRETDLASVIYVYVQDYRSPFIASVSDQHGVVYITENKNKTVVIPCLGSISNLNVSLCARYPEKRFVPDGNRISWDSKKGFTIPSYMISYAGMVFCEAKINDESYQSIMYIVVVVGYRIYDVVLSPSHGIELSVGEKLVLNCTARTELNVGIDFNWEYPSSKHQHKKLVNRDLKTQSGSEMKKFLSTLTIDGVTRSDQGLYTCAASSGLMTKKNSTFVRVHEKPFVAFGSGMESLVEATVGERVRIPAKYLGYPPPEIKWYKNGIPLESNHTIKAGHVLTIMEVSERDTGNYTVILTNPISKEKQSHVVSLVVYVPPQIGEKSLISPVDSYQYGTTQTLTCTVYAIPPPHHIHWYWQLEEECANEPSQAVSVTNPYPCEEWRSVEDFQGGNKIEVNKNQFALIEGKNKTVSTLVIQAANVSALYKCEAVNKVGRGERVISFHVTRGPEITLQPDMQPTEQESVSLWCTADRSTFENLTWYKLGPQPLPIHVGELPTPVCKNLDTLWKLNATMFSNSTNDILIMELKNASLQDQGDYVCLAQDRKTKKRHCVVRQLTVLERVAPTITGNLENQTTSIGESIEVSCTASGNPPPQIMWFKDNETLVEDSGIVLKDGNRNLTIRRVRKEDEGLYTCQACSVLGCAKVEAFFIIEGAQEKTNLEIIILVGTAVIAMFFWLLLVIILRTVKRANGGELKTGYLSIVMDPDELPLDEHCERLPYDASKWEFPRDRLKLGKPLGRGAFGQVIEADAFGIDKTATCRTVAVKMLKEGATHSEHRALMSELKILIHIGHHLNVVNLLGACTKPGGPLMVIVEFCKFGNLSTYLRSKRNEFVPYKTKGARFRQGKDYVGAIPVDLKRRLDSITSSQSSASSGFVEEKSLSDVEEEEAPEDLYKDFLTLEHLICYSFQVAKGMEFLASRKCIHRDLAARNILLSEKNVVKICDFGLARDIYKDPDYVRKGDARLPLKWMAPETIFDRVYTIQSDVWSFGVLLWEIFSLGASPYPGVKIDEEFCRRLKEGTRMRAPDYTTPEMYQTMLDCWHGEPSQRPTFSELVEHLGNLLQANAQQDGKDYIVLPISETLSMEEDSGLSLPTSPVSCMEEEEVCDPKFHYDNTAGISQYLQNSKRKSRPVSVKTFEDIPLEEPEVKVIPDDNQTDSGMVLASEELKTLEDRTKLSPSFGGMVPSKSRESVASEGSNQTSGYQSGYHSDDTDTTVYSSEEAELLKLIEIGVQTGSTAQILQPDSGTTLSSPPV
Protocol: HEK-293 cells expressing the human VEGFR2 and an NFAT reporter gene were provided by Promega Corporation.
On the fourth day, cells were washed with PBS and detached using 3 mL Versene® (ETDA 0.02% in PBS). Once cells had detached, 6 mL of DMEM +0.1%BSA was added and the cells were counted using a haemocytometer. Cells were centrifuged at 200× g for 5 min, resuspended in DMEM +0.1%BSA and seeded at a density of 4 × 10^4 cells per well in 80 μL DMEM +0.1%BSA in white-sided, clear flat-bottomed 96-well plates (Greiner, Stonehouse, UK), which had been coated with 0.01 mg·mL^−1 poly-D-lysine in PBS for 30 min and washed with DMEM. […] After the 5 h incubation, 100 μL ONE-Glo Luciferase Assay reagent was added to each well and luminescence was measured according to the manufacturer's instructions on a Topcount platereader (Perkin Elmer, Llantrisant, UK).
All data were fitted using non-linear regression in Prism 6 (GraphPad Software, San Diego, CA, USA).
A comparison of the extra sum of squares that resulted from the analysis with separate EC50 or Emax values (over that with one of the parameters shared) using the F-test (Prism 6) then allowed for statistical analysis of the difference between EC50 or Emax values. […]

Molecule: COc1cc2c(Oc3ccc4[nH]c(C)cc4c3F)ncnc2cc1OCCCN1CCCC1 [Cediranib]
concentration giving significant inhibition of basal NFAT-luciferase response [1]: above 10 nM

−Log EC50 (human VEGFR2; agonist-stimulated NFAT-luciferase response, 5 h incubation): 9.21 ± 0.08
pKA at VEGFR2 (operational model) (human VEGFR2; partial agonist fit): 8.83 and 8.8
B1: VEGF165b: VEGF-A exon 8 splice variant, lower-efficacy partial agonist at VEGFR2, from R&D systems (protein)
chain: APMAEGGGQNHHEVVKFMDVYQRSYCHPIETLVDIFQEYPDEIEYIFKPSCVPLMRCGGCCNDEGLECVPTEESNITMQIMRIKPHQGQHIGEMSFLQHNKCECRPKKDRARQENPCGPCSERRKHLFVQDPQTCKCSCKNTDSRCKARQLELNERTCRSLTRKD
modifications: disulfide-linked homodimer; natural exon 8b splice isoform (VEGF165b); limits are the mature chain after removal of the 26-residue signal pep
